Test results: article PMC9482650, “Quantitative fragmentomics allow affinity mapping of interactomes” (Nature Communications, 2022)

How the values were obtained:
Experiment in all cases: holdup assay
Parameters in all cases: key: below the threshold = too weak to quantify, mostly under pKd 3.1 to 4
Settings in all cases: plain residues with an end cap or a label only (N-terminal biotin on a linker: ahx)
CARD11, Q9BXL7 = biological target: T1, CARD11, Q9BXL7
T1 sequence (Q9BXL7 662-765, limits assumed, looked up): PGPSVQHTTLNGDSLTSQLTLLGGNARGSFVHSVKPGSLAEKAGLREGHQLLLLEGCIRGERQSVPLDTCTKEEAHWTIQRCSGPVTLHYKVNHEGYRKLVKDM

CASK, O14936 = biological target: CASK, O14936
DFNB31_1, Q9P202 = biological target: T2, DFNB31_1, Q9P202
T2 sequence (Q9P202 135-233, limits assumed, looked up): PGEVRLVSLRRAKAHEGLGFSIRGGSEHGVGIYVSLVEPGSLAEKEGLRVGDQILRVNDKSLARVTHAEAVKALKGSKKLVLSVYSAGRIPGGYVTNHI

DFNB31_3, Q9P202 = biological target: T3, DFNB31_3, Q9P202
T3 sequence (Q9P202 811-907, limits assumed, looked up): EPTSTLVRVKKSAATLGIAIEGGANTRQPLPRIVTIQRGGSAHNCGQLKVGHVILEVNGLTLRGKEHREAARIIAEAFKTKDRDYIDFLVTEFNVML

DLG1_1, Q12959 = biological target: DLG1_1, Q12959
DLG1_2, Q12959 = biological target: DLG1_2, Q12959
DLG3_3, Q92796 = biological target: T4, DLG3_3, Q92796
T4 sequence (Q92796 374-475, limits assumed, looked up): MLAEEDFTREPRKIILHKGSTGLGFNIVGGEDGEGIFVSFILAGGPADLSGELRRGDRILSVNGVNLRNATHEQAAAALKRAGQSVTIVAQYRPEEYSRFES

DLG4_3, P78352 = biological target: DLG4_3, P78352
DVL3, Q92997 = biological target: T5, DVL3, Q92997
T5 sequence (Q92997 244-331, limits assumed, looked up): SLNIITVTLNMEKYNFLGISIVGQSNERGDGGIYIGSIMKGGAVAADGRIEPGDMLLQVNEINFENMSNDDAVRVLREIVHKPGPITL

FRMPD3, Q5JV73 = biological target: FRMPD3, Q5JV73
GRID2IP_2, A4D2P6 = biological target: GRID2IP_2, A4D2P6
GRIP1_3, Q9Y3R0 = biological target: T6, GRIP1_3, Q9Y3R0
T6 sequence (Q9Y3R0 247-346, limits assumed, looked up): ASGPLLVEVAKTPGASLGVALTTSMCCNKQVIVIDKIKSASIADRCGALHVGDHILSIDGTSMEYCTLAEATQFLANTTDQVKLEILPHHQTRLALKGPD

GRIP1_7, Q9Y3R0 = biological target: T7, GRIP1_7, Q9Y3R0
T7 sequence (Q9Y3R0 999-1096, limits assumed, looked up): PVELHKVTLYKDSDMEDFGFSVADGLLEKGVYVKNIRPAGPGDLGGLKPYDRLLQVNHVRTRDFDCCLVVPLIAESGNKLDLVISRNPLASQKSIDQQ

Inadl_10, Q8NI35 = biological target: Inadl_10, Q8NI35
Inadl_6, Q8NI35 = biological target: Inadl_6, Q8NI35
LNX2_3, Q8N448 = biological target: T8, LNX2_3, Q8N448
T8 sequence (Q8N448 463-564, limits assumed, looked up): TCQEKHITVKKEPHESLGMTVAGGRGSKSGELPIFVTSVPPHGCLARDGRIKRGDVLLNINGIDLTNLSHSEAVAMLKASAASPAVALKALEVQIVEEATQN

MAGI1_2, Q96QZ7 = biological target: MAGI1_2, Q96QZ7
MAGI2_3, Q86UL8 = biological target: MAGI2_3, Q86UL8
MAGI2_5, Q86UL8 = biological target: MAGI2_5, Q86UL8
MAST1, Q9Y2H9 = biological target: MAST1, Q9Y2H9
NHERF2_2, Q15599 = biological target: NHERF2_2, Q15599
PCLO, Q9Y6V0 = biological target: T9, PCLO, Q9Y6V0
T9 sequence (Q9Y6V0 4491-4600, limits assumed, looked up): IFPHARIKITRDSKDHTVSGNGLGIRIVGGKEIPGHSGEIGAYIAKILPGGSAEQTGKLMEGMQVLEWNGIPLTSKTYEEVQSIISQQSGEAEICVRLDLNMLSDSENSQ

PTPN3, P26045 = biological target: PTPN3, P26045
RHPN1, Q8TCX5 = biological target: T10, RHPN1, Q8TCX5
T10 sequence (Q8TCX5 508-602, limits assumed, looked up): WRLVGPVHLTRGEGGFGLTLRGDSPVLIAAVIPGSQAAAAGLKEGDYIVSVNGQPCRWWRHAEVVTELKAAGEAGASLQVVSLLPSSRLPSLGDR

SCRIB_3, Q14160 = biological target: SCRIB_3, Q14160
TIAM2, Q8IVF5 = biological target: T11, TIAM2, Q8IVF5
T11 sequence (Q8IVF5 885-986, limits assumed, looked up): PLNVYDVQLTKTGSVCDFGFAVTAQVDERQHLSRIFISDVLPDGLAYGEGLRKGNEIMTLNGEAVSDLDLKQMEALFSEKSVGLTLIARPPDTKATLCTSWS

TJP2_1, Q9UDY2 = biological target: TJP2_1, Q9UDY2
Sequence of TJP2_1, Q9UDY2 (Q9UDY2 24-128): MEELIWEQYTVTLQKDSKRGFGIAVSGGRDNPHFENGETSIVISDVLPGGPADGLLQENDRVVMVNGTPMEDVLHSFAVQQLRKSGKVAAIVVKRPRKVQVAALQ

Sequence of PTPN3, P26045 (P26045 505-587): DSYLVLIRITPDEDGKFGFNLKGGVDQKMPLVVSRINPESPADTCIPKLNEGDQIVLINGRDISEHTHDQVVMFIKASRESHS
Sequence of GRID2IP_2, A4D2P6 (A4D2P6 272-370): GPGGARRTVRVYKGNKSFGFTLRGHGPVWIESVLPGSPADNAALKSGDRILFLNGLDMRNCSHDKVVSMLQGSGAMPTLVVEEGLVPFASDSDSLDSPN
Sequence of SCRIB_3, Q14160 (Q14160 999-1103): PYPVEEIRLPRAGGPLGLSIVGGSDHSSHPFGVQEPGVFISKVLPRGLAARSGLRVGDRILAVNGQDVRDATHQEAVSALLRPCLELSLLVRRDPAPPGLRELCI
Sequence of Inadl_6, Q8NI35 (Q8NI35 1058-1167): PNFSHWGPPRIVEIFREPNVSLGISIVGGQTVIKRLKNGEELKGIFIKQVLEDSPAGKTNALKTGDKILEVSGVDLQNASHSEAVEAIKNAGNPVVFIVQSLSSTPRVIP
Sequence of Inadl_10, Q8NI35 (Q8NI35 1673-1763): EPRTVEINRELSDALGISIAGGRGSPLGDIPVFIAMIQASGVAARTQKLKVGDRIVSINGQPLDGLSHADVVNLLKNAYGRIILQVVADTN
Sequence of CASK, O14936 (O14936 487-570): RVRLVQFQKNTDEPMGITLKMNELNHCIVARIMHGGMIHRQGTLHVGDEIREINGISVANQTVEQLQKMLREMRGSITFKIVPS
Sequence of DLG4_3, P78352 (P78352 306-403): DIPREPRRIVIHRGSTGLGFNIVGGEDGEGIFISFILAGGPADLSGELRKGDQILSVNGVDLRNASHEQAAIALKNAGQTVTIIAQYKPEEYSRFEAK
Sequence of FRMPD3, Q5JV73 (Q5JV73 12-100): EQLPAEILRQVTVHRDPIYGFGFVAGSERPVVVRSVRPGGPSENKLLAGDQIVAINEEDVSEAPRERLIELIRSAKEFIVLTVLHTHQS
Sequence of MAGI2_3, Q86UL8 (Q86UL8 600-682): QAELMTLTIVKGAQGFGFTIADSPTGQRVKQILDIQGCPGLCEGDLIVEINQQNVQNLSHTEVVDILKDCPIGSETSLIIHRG
Sequence of NHERF2_2, Q15599 (Q15599 142-238): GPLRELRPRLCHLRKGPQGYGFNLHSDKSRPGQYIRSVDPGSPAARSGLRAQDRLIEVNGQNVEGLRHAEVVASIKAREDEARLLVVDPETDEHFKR
Sequence of MAGI1_2, Q96QZ7 (Q96QZ7 456-580): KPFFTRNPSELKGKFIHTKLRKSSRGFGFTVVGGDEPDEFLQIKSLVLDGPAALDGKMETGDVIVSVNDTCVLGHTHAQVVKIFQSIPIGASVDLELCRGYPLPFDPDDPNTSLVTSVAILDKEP
Sequence of MAST1, Q9Y2H9 (Q9Y2H9 962-1065): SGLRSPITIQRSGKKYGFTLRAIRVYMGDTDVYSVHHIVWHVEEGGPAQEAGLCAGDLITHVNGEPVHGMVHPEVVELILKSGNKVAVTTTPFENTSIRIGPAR
Sequence of MAGI2_5, Q86UL8 (Q86UL8 915-1017): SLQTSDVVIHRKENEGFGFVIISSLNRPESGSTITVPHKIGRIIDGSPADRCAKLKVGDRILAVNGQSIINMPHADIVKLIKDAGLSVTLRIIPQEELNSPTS

## KTSAHHATFV [RGS12, O14924]
CARD11, Q9BXL7
  pKd: below the threshold
CASK, O14936
  pKd: below the threshold
DFNB31_1, Q9P202
  pKd: 3.61
DFNB31_3, Q9P202
  pKd: below the threshold
DLG1_1, Q12959
  pKd: 3.93
DLG1_2, Q12959
  pKd: 4.15
DLG3_3, Q92796
  pKd: below the threshold
DLG4_3, P78352
  pKd: below the threshold
DVL3, Q92997
  pKd: 3.56
FRMPD3, Q5JV73
  pKd: below the threshold
GRID2IP_2, A4D2P6
  pKd: 4.27
GRIP1_3, Q9Y3R0
  pKd: below the threshold
GRIP1_7, Q9Y3R0
  pKd: below the threshold
Inadl_10, Q8NI35
  pKd: 3.91
Inadl_6, Q8NI35
  pKd: 3.94
LNX2_3, Q8N448
  pKd: below the threshold
MAGI1_2, Q96QZ7
  pKd: 4.03
MAGI2_3, Q86UL8
  pKd: below the threshold
MAGI2_5, Q86UL8
  pKd: 4.37
MAST1, Q9Y2H9
  pKd: 3.65
NHERF2_2, Q15599
  pKd: below the threshold
PCLO, Q9Y6V0
  pKd: below the threshold
PTPN3, P26045
  pKd: 3.92
RHPN1, Q8TCX5
  pKd: 4.03
SCRIB_3, Q14160
  pKd: 4.18
TIAM2, Q8IVF5
  pKd: below the threshold
TJP2_1, Q9UDY2
  pKd: 4.45

## RNCSTNDSLL [ADRB2, P07550]
CARD11, Q9BXL7
  pKd: below the threshold
CASK, O14936
  pKd: below the threshold
DFNB31_1, Q9P202
  pKd: below the threshold
DFNB31_3, Q9P202
  pKd: below the threshold
DLG1_1, Q12959
  pKd: below the threshold
DLG1_2, Q12959
  pKd: below the threshold
DLG3_3, Q92796
  pKd: below the threshold
DLG4_3, P78352
  pKd: below the threshold
DVL3, Q92997
  pKd: below the threshold
FRMPD3, Q5JV73
  pKd: below the threshold
GRID2IP_2, A4D2P6
  pKd: below the threshold
GRIP1_3, Q9Y3R0
  pKd: below the threshold
GRIP1_7, Q9Y3R0
  pKd: 3.48
Inadl_10, Q8NI35
  pKd: 3.56
Inadl_6, Q8NI35
  pKd: below the threshold
LNX2_3, Q8N448
  pKd: below the threshold
MAGI1_2, Q96QZ7
  pKd: below the threshold
MAGI2_3, Q86UL8
  pKd: below the threshold
MAGI2_5, Q86UL8
  pKd: below the threshold
MAST1, Q9Y2H9
  pKd: 3.74
NHERF2_2, Q15599
  pKd: 3.7
PCLO, Q9Y6V0
  pKd: below the threshold
PTPN3, P26045
  pKd: 3.53
RHPN1, Q8TCX5
  pKd: 3.94
SCRIB_3, Q14160
  pKd: below the threshold
TIAM2, Q8IVF5
  pKd: below the threshold
TJP2_1, Q9UDY2
  pKd: below the threshold
